Here are results for 2 molecules from US20040131612A1 (APPLIED MOLECULAR EVOLUTION, published 2004).

Values joined by “and” are separate entries in the source; they are usually repeats but may differ in a detail not shown here. Identical values can stand only once.

In assay [1] the target is T1, human TNF-α (human, UniProt P01375 77-233).
T1 construct: It was biotinylated in the filter lift and on-rate ELISA; also called hTNF-α; hTNF
The assay can be described thus: kinetic exclusion assay (KinExA 3000), Fab in solution with human TNF-α; upper end of the range. As for the experimental part: (§1) Next, binding kinetics of three of the Fab fragments described in Table 4 were determined in a kinetic exclusion assay. Affinity measurements were performed on a KinExA™3000 instrument (Sapidyne Instruments, Inc., Boise, Id.) using Fab fragments (A10K, A9K, and A10P) released from the periplasmic space whose concentration was determined by a quantitative ELISA. Briefly, antigen and antibody fragment were allowed to react in solution and the fraction of unbound reagent was determined by capture and measured on a bead support. Binding kinetics can be determined or calculated from the amount of unbound reagent. For instance, after interaction between TNF-α and a Fab fragment has occurred in solution, binding of the unreacted, free Fab fragment to TNF-α coated beads can be measured on the instrument by detection with a labeled secondary antibody to the Fab fragment (e.g., a goat anti-IgG (heavy and light)). […] A total of 13 tubes were used for each Kd determination. For A10K and A10P, the Fab concentration was 10 pM with the human TNF-α concentration beginning at 160 pM and then serially diluted to 0.078 pM with the final tube containing no human TNF-α. […] After the incubation, the amount of unbound Fab in the equilibrated samples was determined on the KinExA™3000 instrument according to the manufacturer's instructions. Kd values were determined by the instrument software.

Assay [2] concerns the target T1, human TNF-α. Nature of the assay: cell-based or functional assay.
Assay [3] addresses T1, human TNF-α. Nature of the assay: calculated from Kd = koff/kon (KinExA data). As for the experimental part:
Next, binding kinetics of three of the Fab fragments described in Table 4 were determined in a kinetic exclusion assay. Affinity measurements were performed on a KinExA™3000 instrument (Sapidyne Instruments, Inc., Boise, Id.) using Fab fragments (A10K, A9K, and A10P) released from the periplasmic space whose concentration was determined by a quantitative ELISA. Briefly, antigen and antibody fragment were allowed to react in solution and the fraction of unbound reagent was determined by capture and measured on a bead support. Binding kinetics can be determined or calculated from the amount of unbound reagent. For instance, after interaction between TNF-α and a Fab fragment has occurred in solution, binding of the unreacted, free Fab fragment to TNF-α coated beads can be measured on the instrument by detection with a labeled secondary antibody to the Fab fragment (e.g., a goat anti-IgG (heavy and light)). […] After the incubation, the amount of unbound Fab in the equilibrated samples was determined on the KinExA™3000 instrument according to the manufacturer's instructions. Kd values were determined by the instrument software.
To measure kₒₙ, individual Fab fragments at a concentration of 40 pM were mixed with 400 pM of hTNF-α. […] The resulting data was used to calculate the kₒₙ with the instrument software. koff was calculated by using the formula Kd=koff/kₒₙ.

Assay [4] addresses T1, human TNF-α. The assay can be described thus: kinetic exclusion assay (KinExA 3000), Fab in solution with human TNF-α; lower end of the range. How it is done:
as §1
A general note: In KinExA the mixture passes briefly over coated beads that capture the unbound partner.

The target of assay [5] is T1, human TNF-α. The assay can be described thus: kinetic exclusion assay (KinExA 3000), 40 pM Fab mixed with 400 pM hTNF-α, time course. As for the experimental part:
To measure kₒₙ, individual Fab fragments at a concentration of 40 pM were mixed with 400 pM of hTNF-α. A series of measurements were taken over a time course. The resulting data was used to calculate the kₒₙ with the instrument software. koff was calculated by using the formula Kd=koff/kₒₙ.

T1 sequence (P01375 77-233 limits assumed): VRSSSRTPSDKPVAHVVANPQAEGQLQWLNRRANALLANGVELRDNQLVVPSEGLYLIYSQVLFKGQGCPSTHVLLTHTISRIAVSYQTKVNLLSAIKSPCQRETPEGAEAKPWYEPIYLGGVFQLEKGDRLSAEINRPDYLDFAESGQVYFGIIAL

B1: A10K Fab fragment (Fab, V domains shown)
VH: EVQLVESGGGLVQPGGSLRLSCAASGFKFSNHWMNWVRQAPGKGLEWVGEIRSKSMNSATHYAESVKGRFTISRDDSKNSLYLQMNSLKTEDTAVYYCARNYYGSTYDHWGQGTLVTVSS
VL: EIVLTQSPDFQSVTPKEKVTITCRASQFVGYSIHWYQQKPDQSPKLLIKYASESRSGVPSRFSGSGSGTDFTLTINSLEAEDAATYYCQQSHSWHFTFGQGTKVEIK
notes: Fab released from the E. coli periplasm; Against hu1: light chain S31Y, M55R
What is called Kd is the concentration at which binding is half-saturated. By koff is commonly meant a measure of how fast the partners let go of each other. Broadly, the kon is a measure of how fast the partners come together. High values mean fast association, low ones slow association. Consider B1, for which the Kd in assay [1] was ≤ 7.2 pM; in assay [4], ≥ 3.5 pM. Further, the “L929 cell protection assay (prevention of TNF-α-mediated cell death), EC50” value in assay [2] is ~25 pM. Further, the “L929 cell protection assay, EC50” value in assay [2] was ~67 pM. In addition, the koff in assay [3] is 1.96e-05 s⁻¹ and 3.76e-05 s⁻¹. Also, the kon in assay [5] was 3.92e+06 M⁻¹ s⁻¹ and 7.51e+06 M⁻¹ s⁻¹.

B2: A10K IgG (antibody, V domains shown)
VH: EVQLVESGGGLVQPGGSLRLSCAASGFKFSNHWMNWVRQAPGKGLEWVGEIRSKSMNSATHYAESVKGRFTISRDDSKNSLYLQMNSLKTEDTAVYYCARNYYGSTYDHWGQGTLVTVSS
VL: EIVLTQSPDFQSVTPKEKVTITCRASQFVGYSIHWYQQKPDQSPKLLIKYASESRSGVPSRFSGSGSGTDFTLTINSLEAEDAATYYCQQSHSWHFTFGQGTKVEIK
Turning to B2, the “L929 cell protection assay, EC50” value in assay [2] was ~2.7 pM.
